We go through four molecules from patent US20040242853A1.

The target of data set [1] is human GLP-1 receptor (CHO cells stably transfected with the human GLP-1 receptor) (human) (UniProt P43220). The experiment in a line: displacement of 125I-GLP-1 from intact CHO/GLP-1R cells (Example 9). Background: Displacement assays read how much labelled ligand stays bound in the presence of the test substance.
Data set [2] deals with GLP-1 6-aminohexanoic acid8.
Data set [3] deals with T1, human GLP-1 receptor (CHO cells stably transfected with the human GLP-1 receptor) (human), P43220.
T1 chain: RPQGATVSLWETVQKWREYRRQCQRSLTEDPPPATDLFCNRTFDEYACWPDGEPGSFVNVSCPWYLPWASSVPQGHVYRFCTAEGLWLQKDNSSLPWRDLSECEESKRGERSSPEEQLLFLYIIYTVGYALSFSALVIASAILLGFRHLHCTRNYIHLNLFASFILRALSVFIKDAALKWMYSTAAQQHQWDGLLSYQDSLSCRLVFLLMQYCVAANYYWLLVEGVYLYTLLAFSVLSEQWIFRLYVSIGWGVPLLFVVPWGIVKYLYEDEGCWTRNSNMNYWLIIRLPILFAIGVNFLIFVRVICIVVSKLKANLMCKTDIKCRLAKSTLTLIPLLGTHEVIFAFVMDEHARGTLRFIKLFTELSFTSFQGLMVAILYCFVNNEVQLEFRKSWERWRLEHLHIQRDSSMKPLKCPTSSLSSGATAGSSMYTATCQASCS
The experiment in a line: displacement of 125I-GLP-1 from intact CHO/GLP-1R cells (Example 9).

Data set [4] addresses T1, human GLP-1 receptor (CHO cells stably …). The experiment in a line: cell-based or functional assay.

Square brackets hold non-standard residues; d marks the D form. Ends that are not written are not given here. Ahx = NCCCCCC(=O)O

Chain of Exendin (1-35) (peptide; other documents disagree on this pair) (C6EVG1 48-82): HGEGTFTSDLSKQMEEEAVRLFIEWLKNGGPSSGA

What is called IC50 is the concentration that gives 50% inhibition. Read a low IC50 as higher potency. In the case of “Exendin (1-35) (peptide; other documents disagree on this pair)”, in data set [1], the IC50 turned out to be 7 nM.

For the molecule “recombinant DPPIV (dipeptidyl peptidase IV)”, the “N-terminal truncated product measured by MALDI-TOF” value is given as “caused a considerable increase in the amount of N-terminal truncated product (Mr=3089 gmol-1) as measured by MALDI” with GLP-1 (7-36) amide and “In contrast GLP-1 Aha^8 (2 µM) appeared resistant to either treatment” in data set [2].

HGEGTFTSDVSSYLEGQAAKEFIAWLVKGRPSSGAPPPS (modifications not checked) [GLP-1 Gly8(7-36) Exendin(31-39)] came in with an IC50 in data set [3] of 74 nM.

H[Ahx]AEGTFTSDVSSYLEGQAAKEFIAWLVKGR (ends and bridges not checked) [GLP-1 6-aminohexanoic acid8] displayed an intracellular cAMP production in CHO/GLP-1R cells (fold above basal) in data set [4] of 4.
